# Results as given in US20080176792A1, “VEGFR-1 TARGETING PEPTIDES” (priority 2000, published 2008).
# Bridge positions count the residues as written; N and C are the ends. Ends that are not written are not given here.
# B1: synthetic RGD-4C peptide, containing the targeting sequence … (SEQ ID NO:9) (peptide)
# peptide: CDCRGDCFC
# modifications: disulfide (positions not given here); not fully specified; also: cyclized, bonds not given here
# B2: synthetic cognate peptide CPQPRPLC (SEQ ID NO:6) (peptide)
# peptide: CPQPRPLC
# modifications: disulfide 1-8 (inferred)
# Assays:
# RT4 tumor cells = assay: Phage attachment to subconfluent cell monolayer, with peptide competition; type: cell-based, human; conditions: increasing amounts of peptide
# Method: A subconfluent monolayer of RT4 tumor cells was incubated with 1×10^8 T.U. of VHALES (SEQ ID NO:25) phage per well in presence of increasing amounts of VHALES (SEQ ID NO:25) and control peptide. […] Bound phage were detected after intensive washing by infection with log phase K91 bacteria and plating of serial dilutions.
# All cells were grown to subconfluency in 48 well plates and free binding sites were blocked with 800 μl 30% FCS/DMEM (blocking medium) for 1 hour at 37° C. The blocking solution was then replaced by 200 μl 10% FCS/DMEM (washing medium) containing 1×10^8 cfu of each phage per well. After incubation for 2 hours at 4° C. to prevent unspecific endocytosis, unbound phage were removed by washing 7 times with 500 μl washing medium. For competition experiments increasing concentrations of the corresponding peptide or a control peptide (CARAC, SEQ ID NO:5) were added during the incubation. Bound phage were determined by infection with 500 μl log phase K91 culture and plating of serial dilutions.
# KS1767 cells = assay: BRASIL binding of phage to KS1767 cells, with synthetic peptide competition; type: cell-based; conditions: for effect of soluble peptide on RGD-4C phage binding to KS1767 cells: competition experiment
# Method: FIG. 2A. BRASIL method optimization. A single-cell suspension of Kaposi sarcoma-derived cells (KS1767) was incubated with increasing titers of a phage displaying an alpha v integrin-binding motif (RGD-4C phage) or a control phage with no peptide insert (Fd phage). KS1767 cells were chosen because they express high levels of alpha v integrins. Cells and phage were incubated for 4 hours on ice (to prevent phage internalization) and centrifuged for 10 minutes at 10,000 g. The phage bound to the KS1767 cells were recovered by infection of a host E. coli, and plated in LB/tet agar plates at 37° C. overnight. Finally, the phage transducing units were counted. Extremely low backgrounds were observed. Under non-saturated conditions, a conservative mean estimate of the enrichment of RGD-4C phage in relation to Fd phage is 500-1000. This experiment was repeated three times with similar results. Mean and standard deviation are shown.
# Cells were harvested with phosphate-buffered saline (PBS) and 5 mM EDTA, washed with MEM, and re-suspended in MEM containing 1% BSA at 10^6 cells/ml and incubated with phage in 1.5 ml Eppendorf tubes. After 4 h, 100 μl of the cell-phage suspension was gently transferred to the top of a non-miscible organic lower phase (200 μl in a 400 μl-Eppendorf tube) and centrifuged at 10,000 g for 10 minutes. The preferred organic phase combination consisted of a mixture of dibutyl phthalate:cyclohexane (9:1 [v/v]; ρ=1.03 g/ml). BRASIL has been attempted with other phthalate admixtures with the appropriate density (for example, dibutyl phthalate:diisooctyl phthalate; 4:6 [v/v]) with similar results. The tube was snap frozen in liquid nitrogen, the bottom of the tube sliced off, and the cell-phage pellet transferred to a new tube. Bound phage were rescued by infection with 200 μl of E. coli K91kan host bacteria in log phase. To evaluate binding specificity, phage and cells were incubated with the cognate or control synthetic peptides for competition assays.
# KS1767 cells were detached with cold EDTA and re-suspended in MEM containing 1% BSA. […] The cell suspension was incubated with RGD-4C phage or a control phage with no peptide insert (fd-tet phage). Increasing amounts of either phage were added to the cells in suspension and the cell-phage admixture was incubated for 4 hr on ice. BRASIL was performed on ice to minimize post-binding events such as ligand-receptor internalization by the target cells. The cells were separated by centrifugation through the organic phase as described above. Bound phage were recovered and phage TU were counted. To compare BRASIL to conventional cell panning methods that require an additional washing step, 200 μl of the cell suspension were incubated with phage for 4 hr on ice. […]
# human VEGFR-1 = biological target: T1, human VEGFR-1 (Homo sapiens, UniProt P17948); assay: Phage binding to immobilized purified receptor, with competition; conditions: for blocking of clone 19 phage binding to VEGF-R1 by competitor: competitor pre-incubated with immobilized receptor, PDGF-BB up to 200 ng/ml
# T1 construct: purchased Oncogene Research Products, Boston, Mass
# T1 sequence (P17948 27-1338): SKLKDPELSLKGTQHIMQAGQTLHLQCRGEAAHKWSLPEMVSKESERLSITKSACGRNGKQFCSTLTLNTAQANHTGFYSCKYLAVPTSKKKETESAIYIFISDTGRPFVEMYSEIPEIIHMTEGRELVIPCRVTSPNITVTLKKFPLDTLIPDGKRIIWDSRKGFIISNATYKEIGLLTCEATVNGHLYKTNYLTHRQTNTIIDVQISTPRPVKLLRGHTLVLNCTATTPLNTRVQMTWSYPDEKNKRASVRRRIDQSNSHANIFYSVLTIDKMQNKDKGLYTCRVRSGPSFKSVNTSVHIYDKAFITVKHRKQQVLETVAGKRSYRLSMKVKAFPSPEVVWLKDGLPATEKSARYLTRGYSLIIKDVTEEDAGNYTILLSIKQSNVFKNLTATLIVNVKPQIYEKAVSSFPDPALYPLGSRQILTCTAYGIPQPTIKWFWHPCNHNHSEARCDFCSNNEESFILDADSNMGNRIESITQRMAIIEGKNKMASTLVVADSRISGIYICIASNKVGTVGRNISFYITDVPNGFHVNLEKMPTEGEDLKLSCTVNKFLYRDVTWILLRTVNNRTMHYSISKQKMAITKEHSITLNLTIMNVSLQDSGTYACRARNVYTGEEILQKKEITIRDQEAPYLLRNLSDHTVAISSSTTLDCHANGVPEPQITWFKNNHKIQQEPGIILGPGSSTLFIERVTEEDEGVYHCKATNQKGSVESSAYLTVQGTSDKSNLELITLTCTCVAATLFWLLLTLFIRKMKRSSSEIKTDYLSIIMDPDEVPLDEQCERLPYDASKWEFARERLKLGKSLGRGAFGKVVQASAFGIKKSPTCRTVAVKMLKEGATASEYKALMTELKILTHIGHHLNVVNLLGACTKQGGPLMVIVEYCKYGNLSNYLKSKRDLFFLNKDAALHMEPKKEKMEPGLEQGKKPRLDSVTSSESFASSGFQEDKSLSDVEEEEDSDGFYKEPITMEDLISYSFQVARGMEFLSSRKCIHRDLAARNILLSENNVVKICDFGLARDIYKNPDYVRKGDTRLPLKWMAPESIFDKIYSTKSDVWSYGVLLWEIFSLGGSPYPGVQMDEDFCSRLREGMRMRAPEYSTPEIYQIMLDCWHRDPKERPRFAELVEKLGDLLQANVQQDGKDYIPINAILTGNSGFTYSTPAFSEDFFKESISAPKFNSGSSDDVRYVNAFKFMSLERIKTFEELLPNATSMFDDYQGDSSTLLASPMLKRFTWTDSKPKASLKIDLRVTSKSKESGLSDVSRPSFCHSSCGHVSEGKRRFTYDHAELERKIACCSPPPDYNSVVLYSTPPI
# Method: (§1) Human VEGFR-1, human VEGFR-2, rat NRP-1, and rat NRP-2 (1 μg in 50 μl of PBS) were immobilized on microtiter well plates overnight at 4° C. The wells were washed twice with PBS, blocked with PBS containing 3% BSA for 2 h at room temperature, and then incubated with 10^9 TU of either […] (SEQ ID NO:6) phage, […] (SEQ ID NO:11) phage, or fd-tet phage in 50 μl of PBS/1.5% BSA. After 1 hr at room temperature, wells were washed nine times with PBS and phage were recovered by bacterial infection. Serial dilutions were plated onto Luria-Bertani (LB) medium supplemented with tetracycline. VEGF165, PDGF-BB, or synthetic peptides were used at the indicated concentrations and pre-incubated with the immobilized proteins to evaluate competitive inhibition of phage binding. ELISA with either polyclonal anti-VEGFR-1 serum or anti-human IgG (VEGFR-2, NRP-1, and NRP-2) confirmed the presence and concentration of the immobilized receptors on the microtiter plates. […] Following three washes, VEGF165 binding was evaluated by ELISA by using anti-VEGF specific antibodies (data not shown).
# rat NRP-1 = biological target: T2, rat NRP-1 (Rattus norvegicus, UniProt Q9QWJ9); assay: as above; conditions: competitor pre-incubated with immobilized receptor; PDGF-BB up to 200 ng/ml
# T2 construct: purchased R&D Systems Minneapolis, Minn
# T2 sequence (Q9QWJ9 with tags, fused parts or gaps limits assumed): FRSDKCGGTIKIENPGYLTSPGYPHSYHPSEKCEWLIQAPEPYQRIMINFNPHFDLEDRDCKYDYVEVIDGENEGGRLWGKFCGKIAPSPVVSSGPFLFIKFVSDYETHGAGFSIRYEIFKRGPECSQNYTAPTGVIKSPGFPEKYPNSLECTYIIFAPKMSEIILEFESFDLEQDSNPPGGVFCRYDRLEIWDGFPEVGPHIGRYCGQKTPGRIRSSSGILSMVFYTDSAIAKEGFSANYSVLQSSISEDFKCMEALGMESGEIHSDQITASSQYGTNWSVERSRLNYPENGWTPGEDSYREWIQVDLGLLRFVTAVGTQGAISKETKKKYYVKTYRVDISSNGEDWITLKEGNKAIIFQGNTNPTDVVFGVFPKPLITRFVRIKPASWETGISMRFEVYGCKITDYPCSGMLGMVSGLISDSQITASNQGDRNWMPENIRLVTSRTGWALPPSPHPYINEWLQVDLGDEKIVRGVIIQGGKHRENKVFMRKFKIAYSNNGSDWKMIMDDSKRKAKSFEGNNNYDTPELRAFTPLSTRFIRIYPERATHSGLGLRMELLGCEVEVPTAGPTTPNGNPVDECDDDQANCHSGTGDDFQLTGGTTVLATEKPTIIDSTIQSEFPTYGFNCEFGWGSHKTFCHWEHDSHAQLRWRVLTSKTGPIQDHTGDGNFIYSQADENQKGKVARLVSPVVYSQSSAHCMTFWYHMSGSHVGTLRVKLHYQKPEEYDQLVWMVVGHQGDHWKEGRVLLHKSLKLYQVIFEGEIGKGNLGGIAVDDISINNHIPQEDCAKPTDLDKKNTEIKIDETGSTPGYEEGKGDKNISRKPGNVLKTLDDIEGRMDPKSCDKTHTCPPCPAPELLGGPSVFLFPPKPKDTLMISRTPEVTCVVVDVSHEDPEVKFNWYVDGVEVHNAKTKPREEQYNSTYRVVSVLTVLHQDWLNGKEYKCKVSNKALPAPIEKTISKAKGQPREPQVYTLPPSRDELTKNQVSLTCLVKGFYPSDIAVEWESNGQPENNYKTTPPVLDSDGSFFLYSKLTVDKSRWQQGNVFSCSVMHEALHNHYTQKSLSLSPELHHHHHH
# Method: as §1
# porcine bladder mucosa = assay: Dot blot chamber assay after removal of the GAG-layer; type: cell-based; conditions: 0.1M HCl for 2 min; relative to untreated mucosa set to 1
# Method: FIG. 10. Influence of the GAG-layer on phage binding. In the dot blot chamber assay portions of a porcine bladder mucosa were treated with 0.1M HCl for 2 min prior to remove the GAG-layer. Binding to treated surface is given relative to untreated surface, that was set as 1. Bound phage were detected after intensive washing by infection with log phase K91 bacteria and plating of serial dilutions.
# Removal of the glucosaminoglycan- (GAG-) layer on intact mucosa samples was performed as a dot blot chamber assay. Half of the wells were incubated with 200 μl 0.1M HCl per well for 2 min, intensely rinsed with blocking solution and both parts blocked as before. Results are given relative to fd-tet phage to untreated mucosa, that was set to 1.
# Using the same assay the influence of the glucosaminoglycan (GAG) layer on binding of several phage to intact mucosa was examined. The GAG-layer was removed as described above. Half of the mucosa of human ureter and porcine bladder specimens were treated inside the dot blot chamber with […] for 2 min, extensively washed and the binding assay performed as before.
# [1] = biological target: alpha v integrins on KS1767 cells (Kaposi sarcoma-derived cell line) (UniProt P06756); assay: BRASIL, phage on KS1767 cells in suspension, transducing units recovered
# Sequence of alpha v integrins on KS1767 cells (Kaposi sarcoma-derived cell line) (P06756 31-1048): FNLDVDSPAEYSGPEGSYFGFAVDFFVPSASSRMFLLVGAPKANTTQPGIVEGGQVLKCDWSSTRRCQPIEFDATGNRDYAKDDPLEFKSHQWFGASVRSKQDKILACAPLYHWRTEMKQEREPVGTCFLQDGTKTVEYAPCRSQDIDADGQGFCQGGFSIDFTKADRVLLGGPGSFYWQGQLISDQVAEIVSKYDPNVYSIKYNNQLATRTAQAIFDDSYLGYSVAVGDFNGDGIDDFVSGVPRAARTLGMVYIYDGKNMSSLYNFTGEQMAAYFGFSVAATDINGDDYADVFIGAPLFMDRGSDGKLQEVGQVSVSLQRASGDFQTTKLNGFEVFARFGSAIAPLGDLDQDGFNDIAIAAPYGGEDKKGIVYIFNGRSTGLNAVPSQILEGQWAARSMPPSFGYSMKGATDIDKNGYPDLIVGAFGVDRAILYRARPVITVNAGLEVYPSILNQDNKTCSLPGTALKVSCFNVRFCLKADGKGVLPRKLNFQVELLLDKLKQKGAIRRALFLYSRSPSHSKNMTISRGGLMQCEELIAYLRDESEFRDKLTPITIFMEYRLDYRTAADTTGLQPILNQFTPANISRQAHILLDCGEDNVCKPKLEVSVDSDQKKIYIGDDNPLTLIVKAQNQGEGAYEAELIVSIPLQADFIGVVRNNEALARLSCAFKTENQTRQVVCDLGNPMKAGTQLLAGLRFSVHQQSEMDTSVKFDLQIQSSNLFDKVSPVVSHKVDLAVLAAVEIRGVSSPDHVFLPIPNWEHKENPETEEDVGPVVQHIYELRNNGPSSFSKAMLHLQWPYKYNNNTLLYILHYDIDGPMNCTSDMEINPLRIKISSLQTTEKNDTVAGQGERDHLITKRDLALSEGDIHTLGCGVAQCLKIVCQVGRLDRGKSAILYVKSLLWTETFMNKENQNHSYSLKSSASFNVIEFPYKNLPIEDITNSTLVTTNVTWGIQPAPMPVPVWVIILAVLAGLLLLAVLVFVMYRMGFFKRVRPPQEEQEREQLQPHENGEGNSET
# [2] = biological target: alpha v integrins on KS1767 cells (Kaposi sarcoma-derived cell line) (UniProt P06756); assay: BRASIL on KS1767 cells, competition with peptide in solution
# [3] = biological target: T3, recombinant human VEGFR-1 (human, UniProt P17948 27-758, limits assumed); assay: competition of clone-19 phage binding to immobilized receptors; reference is NRP-1 (not shown)
# T3 construct: Bought; immobilized on microtiter wells (1 ug in 50 ul PBS); also called Flt1
# T3 sequence (P17948 27-758 limits assumed): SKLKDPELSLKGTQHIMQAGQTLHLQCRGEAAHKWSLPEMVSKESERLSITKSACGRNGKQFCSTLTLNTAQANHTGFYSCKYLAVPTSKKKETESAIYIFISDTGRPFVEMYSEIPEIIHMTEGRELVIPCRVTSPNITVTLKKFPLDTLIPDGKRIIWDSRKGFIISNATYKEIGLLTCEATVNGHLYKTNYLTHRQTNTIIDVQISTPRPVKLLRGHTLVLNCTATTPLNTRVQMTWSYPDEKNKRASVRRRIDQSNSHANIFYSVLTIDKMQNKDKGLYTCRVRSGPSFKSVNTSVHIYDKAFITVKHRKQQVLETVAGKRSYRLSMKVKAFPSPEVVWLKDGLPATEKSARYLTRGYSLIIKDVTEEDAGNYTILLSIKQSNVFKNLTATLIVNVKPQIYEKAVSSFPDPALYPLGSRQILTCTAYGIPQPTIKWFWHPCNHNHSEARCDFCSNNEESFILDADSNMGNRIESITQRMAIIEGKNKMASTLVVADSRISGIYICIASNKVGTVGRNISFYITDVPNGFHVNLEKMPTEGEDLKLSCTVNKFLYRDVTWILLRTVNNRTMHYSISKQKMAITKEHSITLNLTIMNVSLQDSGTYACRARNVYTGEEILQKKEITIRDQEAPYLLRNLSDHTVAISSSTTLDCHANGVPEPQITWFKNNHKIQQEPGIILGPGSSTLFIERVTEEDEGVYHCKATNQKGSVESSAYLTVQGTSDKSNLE
# Method: (§2) Human VEGFR-1, human VEGFR-2, rat NRP-1, and rat NRP-2 (1 μg in 50 μl of PBS) were immobilized on microtiter well plates overnight at 4° C. The wells were washed twice with PBS, blocked with PBS containing 3% BSA for 2 h at room temperature, and then incubated with 10⁹ TU of either […] […] (SEQ ID NO:11) phage, or fd-tet phage in 50 μl of PBS/1.5% BSA. After 1 hr at room temperature, wells were washed nine times with PBS and phage were recovered by bacterial infection. Serial dilutions were plated onto Luria-Bertani (LB) medium supplemented with tetracycline. VEGF₁₆₅, PDGF-BB, or synthetic peptides were used at the indicated concentrations and pre-incubated with the immobilized proteins to evaluate competitive inhibition of phage binding.
# recombinant rat NRP-1/Fc = biological target: T4, recombinant rat NRP-1/Fc (rat; human, UniProt Q9QWJ9 22-854, limits assumed); assay: competition of clone-19 phage binding to immobilized NRP-1 (not shown)
# T4 construct: Bought receptor/Fc chimera; also called rat Neuropilin-1; neuropilin-1; not shown: Fc region of human IgG1
# T4 sequence (looked up): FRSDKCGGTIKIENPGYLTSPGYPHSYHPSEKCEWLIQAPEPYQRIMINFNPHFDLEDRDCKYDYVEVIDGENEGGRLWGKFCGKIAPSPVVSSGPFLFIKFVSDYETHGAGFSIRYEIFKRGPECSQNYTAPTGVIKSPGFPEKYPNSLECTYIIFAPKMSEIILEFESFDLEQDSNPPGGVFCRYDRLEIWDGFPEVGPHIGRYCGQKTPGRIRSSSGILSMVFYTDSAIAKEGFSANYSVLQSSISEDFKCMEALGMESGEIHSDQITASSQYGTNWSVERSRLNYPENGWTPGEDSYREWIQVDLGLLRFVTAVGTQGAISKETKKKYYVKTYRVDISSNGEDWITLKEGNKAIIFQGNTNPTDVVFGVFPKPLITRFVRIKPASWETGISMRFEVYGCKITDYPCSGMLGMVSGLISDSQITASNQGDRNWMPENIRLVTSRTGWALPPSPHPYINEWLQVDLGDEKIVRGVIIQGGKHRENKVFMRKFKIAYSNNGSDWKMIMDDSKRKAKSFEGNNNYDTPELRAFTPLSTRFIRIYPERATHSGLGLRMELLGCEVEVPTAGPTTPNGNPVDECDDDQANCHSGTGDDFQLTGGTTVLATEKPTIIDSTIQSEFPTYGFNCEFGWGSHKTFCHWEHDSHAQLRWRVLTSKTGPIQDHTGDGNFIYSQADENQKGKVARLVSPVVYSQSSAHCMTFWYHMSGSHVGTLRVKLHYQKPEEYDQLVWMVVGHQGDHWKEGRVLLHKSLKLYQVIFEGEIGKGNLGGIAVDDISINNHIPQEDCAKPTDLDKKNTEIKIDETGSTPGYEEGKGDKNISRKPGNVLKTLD
# Method: as §2
molecule,measurement,setting,value
"O=c1[nH]cc(F)c(=O)[nH]1 [CARAC, reference compound]",effect of peptide on VHALES phage binding to RT4 tumor cells,RT4 tumor cells,unchanged and not
same,effect of soluble peptide on RGD-4C phage binding to KS1767 cells,KS1767 cells,no effect
CDCRGDCFC [RGD-4C peptide],effect of soluble peptide on RGD-4C phage binding to KS1767 cells,KS1767 cells,completely inhibited
same,inhibition of RGD-4C phage binding to KS1767 cells,KS1767 cells; synthetic peptide in solution,99.99%
CPQPRPLC,efficiency in blocking phage binding to VEGF-R1 relative to NRP-1,"human VEGFR-1; clone 19 phage, VEGF-R1 versus NRP-1",approximately 100 fold
same,blocking of clone 19 phage binding to VEGF-R1 by competitor,human VEGFR-1,blocked
same,blocking of clone 19 phage binding to NRP-1 by competitor,rat NRP-1,blocked
CRIRMSAGC,change of phage binding after GAG-removal,porcine bladder mucosa,unchanged
GRGESP,effect of soluble peptide on RGD-4C phage binding to KS1767 cells,KS1767 cells,no effect
PDGF-BB: PDGF-BB obtained commercially (R&D Systems) [reference compound],blocking of clone 19 phage binding to VEGF-R1 by competitor,human VEGFR-1,not
same,blocking of clone 19 phage binding to NRP-1 by competitor,rat NRP-1,not
RGD-4C phage (peptide),enrichment in relation to Fd phage,[1],500 to 1000 fold
same,ratio of RGD4C to Fd phage recovered (enrichment),[1],100 to 500 fold
VHALES [VHALES peptide],effect of peptide on VHALES phage binding to RT4 tumor cells,RT4 tumor cells,reduced
same,effect of peptide on VHALES phage binding to RT4 tumor cells,RT4 tumor cells; listed as VHALE,inhibited
B1,percent inhibition of RGD-4C phage binding,[2],100%
B2,"fold efficiency in blocking phage binding, VEGF-R1 against NRP-1",[3],~100 fold
same,binding result,recombinant rat NRP-1/Fc,binds
